Test results reported in doi:10.1101/594168, “Pat1 activates late steps in mRNA decay by multiple mechanisms” (bioRxiv, 2019).
Changes are numbered by the printed parent chain. In names and notes the source's numbering stands.

B1: MBP-PatMC (Pat1 residues 296-754) (domain or fragment, S. pombe, UniProt O42958 296-754, looked up)
chain: LDEKRQKLERDHMLMAQCAGLMTRSDKSFIARIQISQLMSEDPESDDFYYRVYSIIRGRKPSEEEASHFIQTYLGPSNNRRRGRRSENPMQKLQQQLQRLVSSAKERPKATQLSLEGALGKIAVNTVRTPRQLLNVKRPTEPASSNSSLNNFSGFSTKKDVLHAIEKVYDLLLDFEQALRKASTLETTDQEQIDTWKTTLSEKLESIWKALYINESLEASSKTRPPFISIISHPKGMRLLPRLFPHLSKEQQISILKVVVYNFDSLDIVLRGTFDVNGELPLDVVSEMSSFTQFIIPPLLTIVNELDLETINNLFSQLLNRTNAVYLIQTKIGLSFLTLFISRAEILKQSGTVNQNEKEEWENTFNVMFNRVKGHFSTVFPPPNARAYADESYPWEFLAACATAASSEQHFTLVSETRDRVLDNIITSKRAPSEIAVVRISNVNLFLNAMGLDARQLSA
notes: The MBP tag was not removed from constructs that contain the middle domain; also called SpPatMC; H6MBP-PatMC; source: E. coli BL21(DE3)*, purified (Ni-NTA, SEC); not shown: His6, N-terminal, kept; MBP, N-terminal, kept
B2: MBP-PatMC L457A/E461K (domain or fragment, S. pombe, UniProt O42958 296-754, looked up)
chain: B1 chain with L162A, E166K
notes: also called SpPatMC L457A/E461K; Mut; source: E. coli BL21(DE3)*, purified (Ni-NTA, SEC); not shown: His6, N-terminal, kept; MBP, N-terminal, kept
B3: MBP-Pat1 296-431 (domain or fragment, S. pombe, UniProt O42958 296-431, looked up)
chain: LDEKRQKLERDHMLMAQCAGLMTRSDKSFIARIQISQLMSEDPESDDFYYRVYSIIRGRKPSEEEASHFIQTYLGPSNNRRRGRRSENPMQKLQQQLQRLVSSAKERPKATQLSLEGALGKIAVNTVRTPRQLLNV
notes: also called construct containing most of the middle domain of Pat1; source: E. coli BL21(DE3)*, purified (Ni-NTA, SEC); not shown: His6, N-terminal, kept; MBP, N-terminal, kept
B4: MBP-Pat1 317-754 (domain or fragment, S. pombe, UniProt O42958 317-754, looked up)
chain: MTRSDKSFIARIQISQLMSEDPESDDFYYRVYSIIRGRKPSEEEASHFIQTYLGPSNNRRRGRRSENPMQKLQQQLQRLVSSAKERPKATQLSLEGALGKIAVNTVRTPRQLLNVKRPTEPASSNSSLNNFSGFSTKKDVLHAIEKVYDLLLDFEQALRKASTLETTDQEQIDTWKTTLSEKLESIWKALYINESLEASSKTRPPFISIISHPKGMRLLPRLFPHLSKEQQISILKVVVYNFDSLDIVLRGTFDVNGELPLDVVSEMSSFTQFIIPPLLTIVNELDLETINNLFSQLLNRTNAVYLIQTKIGLSFLTLFISRAEILKQSGTVNQNEKEEWENTFNVMFNRVKGHFSTVFPPPNARAYADESYPWEFLAACATAASSEQHFTLVSETRDRVLDNIITSKRAPSEIAVVRISNVNLFLNAMGLDARQLSA
notes: also called PatMC lacking the LAR; source: E. coli BL21(DE3)*, purified (Ni-NTA, SEC); not shown: His6, N-terminal, kept; MBP, N-terminal, kept

Target: T1, Lsm1-7 complex (S. pombe, UniProt P87173 1-140; O94408 1-96; Q9Y7M4 1-93; O14352 1-121; O42978 1-80; Q9UUI1 1-75; …)
T1 construct: Lsm1, S. pombe; Lsm2, S. pombe; Lsm3, S. pombe; Lsm4, S. pombe; Lsm5, S. pombe; Lsm6, S. pombe; Lsm7, S. pombe; Heteroheptameric ring formed beforehand; the His6-TEV tag stood on the N-terminus of Lsm1 and was cleaved with TEV protease; also called Lsm1-7 ring; source: E. coli BL21(DE3)*, co-expressed from a polycistronic gene, purified (Ni-NTA, heparin, SEC); not shown: His6, N-terminal, …
Assay: pull-down; 10 µM MBP-tagged Pat1 construct and 10 µM Lsm1-7 mixed 15 min at room temperature, bound to amylose beads, washed four times, eluted with 10 mM maltose; SEC buffer (20 mM HEPES pH 7, 150 mM NaCl, 1 mM DTT); SDS-PAGE, Instant Blue stain
Conditions: both partners purified

| Binder | binding result |
| --- | --- |
| B1 | binds |
| B2 | binds |
| B3 | binds |
| B4 | binds |
